Data on two molecules can be found in patent US20120207760A1 (THERACLONE SCIENCES, published 2012).

The target in the assay is M2 protein of influenza A/Puerto Rico/8/34 (H1N1), on inactivated virus (Influenza A virus A/Puerto Rico/8/34 …, UniProt P06821 1-97). Kind of assay: surface plasmon resonance, Fab fragment on influenza virus. On the technique in general: Surface plasmon resonance follows binding to a sensor surface in real time, without labels.
M2 protein of influenza A/Puerto Rico/8/34 (H1N1), on inactivated virus, sequence (P06821 whole entry, the tested form may be a part): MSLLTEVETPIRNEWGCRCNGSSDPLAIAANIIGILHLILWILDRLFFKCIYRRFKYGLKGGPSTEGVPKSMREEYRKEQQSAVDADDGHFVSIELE

B1: TCN-032 Fab fragment (Fab, V domains shown)
VH: QVQLQESGPGLVKPSETLSLTCTVSGSSISNYYWSWIRQSPGKGLEWIGFIYYGGNTKYNPSLKSRVTISQDTSKSQVSLTMSSVTAAESAVYFCARASCSGGYCILDYWGQGTLVTVS
VL: DIQMTQSPSSLSASVGDRVTITCRASQNIYKYLNWYQQRPGKAPKGLISAASGLQSGVPSRFSGSGSGTDFTLTITSLQPEDFATYYCQQSYSPPLTFGGGTRVEIK
One may read the Kd as the concentration at which binding is half-saturated. Low values mean tighter binding, high ones weaker binding. As a reminder, the koff is the rate constant with which the complex falls apart. A high value points to a short-lived complex. A word on the kon: it is the second-order rate constant of association. The low end stands for slow association, the high end for fast association. B1 displayed a Kd of 3.2 nM, a koff of 0.0023 s⁻¹ and a kon of 740000 M⁻¹ s⁻¹.

B2: TCN-031 Fab fragment (Fab, V domains shown)
VH: EVQLVESGGGLVQPGGSLRISCAASGFTVSSNYMSWVRQAPGKGLEWVSVIYSGGSTYYADSVKGRFSFSRDNSKNTVFLQMNSLRAEDTAVYYCARCLSRMRGYGLDVWGQGTTVTVS
VL: DIQMTQSPSSLSASVGDRVTITCRTSQSISSYLNWYQQKPGKAPKLLIYAASSLQSGVPSRFSGSGSGTDFTLTISGLQPEDFATYYCQQSYSMPAFGQGTKLEIK
The molecule B2 returned a Kd of 14 nM, a koff of 0.014 s⁻¹ and a kon of 1e+06 M⁻¹ s⁻¹.
